Changes are numbered by the printed parent chain. Like-named read-outs stand apart in the source and are kept apart here. Blank lines part the entries; values can stand above or below the binder they belong to.
Key:
Experiment in all cases: competition with [125I]glucagon, SPA, membranes of 293HEK cells expressing the receptor
[1] = target: T1, cynomologous monkey glucagon receptor (cynomologous monkey, UniProt P47871 27-477 (human entry))
T1 construct: Cloned receptor expressed in 293HEK cells; also called cyno GluR; cyno GlucR
T1 chain: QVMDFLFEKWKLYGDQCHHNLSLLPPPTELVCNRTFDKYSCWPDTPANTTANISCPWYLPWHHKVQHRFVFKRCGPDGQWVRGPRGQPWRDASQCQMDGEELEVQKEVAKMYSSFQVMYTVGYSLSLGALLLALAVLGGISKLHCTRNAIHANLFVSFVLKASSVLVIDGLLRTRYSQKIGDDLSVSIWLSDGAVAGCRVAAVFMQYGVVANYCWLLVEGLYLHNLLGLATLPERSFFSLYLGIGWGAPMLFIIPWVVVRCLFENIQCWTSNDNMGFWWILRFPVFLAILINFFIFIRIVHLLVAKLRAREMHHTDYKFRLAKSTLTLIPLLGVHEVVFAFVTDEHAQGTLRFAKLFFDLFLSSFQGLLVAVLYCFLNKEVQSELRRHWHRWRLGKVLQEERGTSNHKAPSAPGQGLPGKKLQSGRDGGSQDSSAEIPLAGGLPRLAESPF

mouse glucagon receptor [2] = target: T2, mouse glucagon receptor (mouse, UniProt Q61606 28-485)
T2 construct: Cloned receptor expressed in 293HEK cells; also called murine GluR; mouse GlucR
T2 chain: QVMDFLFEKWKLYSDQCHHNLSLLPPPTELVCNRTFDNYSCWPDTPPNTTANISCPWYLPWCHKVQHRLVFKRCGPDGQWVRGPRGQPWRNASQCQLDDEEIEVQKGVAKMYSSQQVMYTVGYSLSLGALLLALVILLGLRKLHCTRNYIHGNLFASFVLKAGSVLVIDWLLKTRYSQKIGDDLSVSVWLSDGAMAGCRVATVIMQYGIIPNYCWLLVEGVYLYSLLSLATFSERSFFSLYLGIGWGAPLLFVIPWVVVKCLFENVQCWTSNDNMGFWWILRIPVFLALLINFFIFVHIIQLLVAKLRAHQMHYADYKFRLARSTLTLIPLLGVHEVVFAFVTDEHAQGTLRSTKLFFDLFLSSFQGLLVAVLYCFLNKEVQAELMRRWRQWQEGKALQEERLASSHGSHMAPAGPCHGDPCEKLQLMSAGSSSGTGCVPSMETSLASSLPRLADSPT

human glucagon receptor [3] = target: T3, human glucagon receptor (human, UniProt P47871 27-477)
T3 construct: Cloned receptor expressed in 293HEK cells; also called human GluR; human GlucR

rat glucagon receptor [4] = target: T4, rat glucagon receptor (rat, UniProt P30082 28-485)
T4 construct: Cloned receptor expressed in 293HEK cells; also called rat GluR; rat GlucR

[5] = target: T1, cynomologous monkey glucagon receptor
Description: (§1) A competitive receptor/ligand binding experiment is adapted to a scintillation proximity assay (SPA) format. Incubations are performed in clear bottom, opaque 96-well microplates. Compound is serially diluted 3-fold in binding buffer consisting of 25 mM Hepes, pH 7.4, 2.5 mM CaCl₂, 1 mM MgCl₂, 0.1% fatty acid free BSA, 0.003% tween-20 and Complete^R EDTA-free protease inhibitor tablets. […] Plates are sealed with adhesive sealing tape, mixed end over end, and incubated at room temperature for 12 hours. The radioactivity bound to the receptor (in close proximity to the WGA SPA bead) is quantified on a PE Life and Analytical Sciences Trilux Microbeta plate scintillation counter and expressed as counts per minute (CPM).

mouse glucagon receptor [6] = target: T2, mouse glucagon receptor
Description: as §1

human glucagon receptor [7] = target: T3, human glucagon receptor; remark: listed apart in the source
Description: as §1

rat glucagon receptor [8] = target: T4, rat glucagon receptor; remark: listed apart in the source
Description: as §1

B1: Fab fragment of antibody example 4 (Fab4) (Fab, V domains shown)
VH: QVQLQESGPGLVKPSETLSLTCTVSGDDITSGYHDWIRQPPGKGLEWIGYISYSGSTYYSPSLKSRVTISVDTSKNQFSLKLSSVTAADTAVYYCARPPGYYGFGPYALDYWGQGTLVTVSS
VL: DIQMTQSPSSLSASVGDRVTITCSASSSVSYIHWYQQKPGKAPKLLIYTTSYLAHGVPSRFSGSGSGTDFTLTISSLQPEDFATYYCQQRSTLPPTFGGGTKVEIKR
notes: Expressed in E. coli; Fab = VL+CL and VH+CH1 (Fc absent); not shown: His tag
Ki [1]: < 50 nM
Ki (mouse glucagon receptor [2]): < 50 nM
Ki (human glucagon receptor [3]): < 50 nM
Ki (rat glucagon receptor [4]): < 50 nM
Ki [5]: 9.42 nM
Ki (mouse glucagon receptor [6]): 2.43 nM
Ki (human glucagon receptor [7]): 2.9 nM
Ki (rat glucagon receptor [8]): 3.3 nM

B2: Antibody of example 4 (Ab4) (antibody, human IgG4 S228P, kappa, F234A L235A, V domains shown)
VH: B1 VH
VL: B1 VL
notes: Humanized full antibody with kappa light chain and modified human IgG4 Fc
Ki [1]: < 50 nM
Ki (mouse glucagon receptor [2]): < 50 nM
Ki (human glucagon receptor [3]): < 50 nM
Ki (rat glucagon receptor [4]): < 50 nM
Ki [5]: 6 nM
Ki (mouse glucagon receptor [6]): 0.83 nM
Ki (human glucagon receptor [7]): 1.34 nM
Ki (rat glucagon receptor [8]): 1.24 nM

B11: Fab fragment of antibody example 7 (Fab, V domains shown)
VH: B1 VH with D35E, Y58S, G100A
VL: B1 VL
notes: Expressed in E. coli; Fab = VL+CL and VH+CH1 (Fc absent); also called Fab of Ab7; not shown: His tag
Ki [1]: < 50 nM
Ki (mouse glucagon receptor [2]): < 50 nM
Ki (human glucagon receptor [3]): < 50 nM
Ki (rat glucagon receptor [4]): < 50 nM

B12: Fab fragment of antibody example 3 (Fab, V domains shown)
VH: B1 VH with H34W
VL: B1 VL with Q88L
notes: Expressed in E. coli; Fab = VL+CL and VH+CH1 (Fc absent); also called Fab of Ab3; not shown: His tag
Ki [1]: < 50 nM
Ki (mouse glucagon receptor [2]): < 50 nM
Ki (human glucagon receptor [3]): < 50 nM
Ki (rat glucagon receptor [4]): < 50 nM

B13: Fab fragment of antibody example 1 (Fab, V domains shown)
VH: B1 VH with H34W
VL: B1 VL with I32M, Y52N, Q89W
notes: Expressed in E. coli; Fab = VL+CL and VH+CH1 (Fc absent); also called Fab of Ab1; not shown: His tag
Ki [1]: < 50 nM
Ki (mouse glucagon receptor [2]): < 50 nM
Ki (human glucagon receptor [3]): < 50 nM
Ki (rat glucagon receptor [4]): < 50 nM

B14: Antibody of example 5 (Ab5) (antibody, human IgG4 S228P, kappa, F234A L235A, V domains shown)
VH: B1 VH with Y58Q
VL: B1 VL
notes: as for B2
Ki [1]: < 50 nM
Ki (mouse glucagon receptor [2]): < 50 nM
Ki (human glucagon receptor [3]): < 50 nM
Ki (rat glucagon receptor [4]): < 50 nM

Second part, the binder after the results:

Ki [1]: < 50 nM
Ki (mouse glucagon receptor [2]): < 50 nM
Ki (human glucagon receptor [3]): < 50 nM
Ki (rat glucagon receptor [4]): < 50 nM
B3: Antibody of example 2 (Ab2) (antibody, human IgG4 S228P, kappa, F234A L235A, V domains shown)
VH: B1 VH with H34W, D35N, S60I, L109M
VL: B1 VL with A25Y, I32M, Y52N
notes: as for B2

Ki [1]: < 50 nM
Ki (mouse glucagon receptor [2]): < 50 nM
Ki (human glucagon receptor [3]): < 50 nM
Ki (rat glucagon receptor [4]): < 50 nM
B4: Antibody of example 7 (Ab7) (antibody, human IgG4 S228P, kappa, F234A L235A, V domains shown)
VH: B1 VH with D35E, Y58S, G100A
VL: B1 VL
notes: as for B2

Ki [1]: < 50 nM
Ki (mouse glucagon receptor [2]): < 50 nM
Ki (human glucagon receptor [3]): < 50 nM
Ki (rat glucagon receptor [4]): < 50 nM
B5: Antibody of example 6 (Ab6) (antibody, human IgG4 S228P, kappa, F234A L235A, V domains shown)
VH: B1 VH with G100A
VL: B1 VL
notes: as for B2

Ki [1]: < 50 nM
Ki (mouse glucagon receptor [2]): < 50 nM
Ki (human glucagon receptor [3]): < 50 nM
Ki (rat glucagon receptor [4]): < 50 nM
B6: Fab fragment of antibody example 6 (Fab, V domains shown)
VH: B1 VH with G100A
VL: B1 VL
notes: Expressed in E. coli; Fab = VL+CL and VH+CH1 (Fc absent); also called Fab of Ab6; not shown: His tag

Ki [1]: < 50 nM
Ki (mouse glucagon receptor [2]): < 50 nM
Ki (human glucagon receptor [3]): < 50 nM
Ki (rat glucagon receptor [4]): < 50 nM
B7: Fab fragment of antibody example 2 (Fab, V domains shown)
VH: B1 VH with H34W, D35N, S60I, L109M
VL: B1 VL with A25Y, I32M, Y52N
notes: Expressed in E. coli; Fab = VL+CL and VH+CH1 (Fc absent); also called Fab of Ab2; not shown: His tag

Ki [1]: < 50 nM
Ki (mouse glucagon receptor [2]): < 50 nM
Ki (human glucagon receptor [3]): < 50 nM
Ki (rat glucagon receptor [4]): < 50 nM
B8: Antibody of example 3 (Ab3) (antibody, human IgG4 S228P, kappa, F234A L235A, V domains shown)
VH: B1 VH with H34W
VL: B1 VL with Q88L
notes: as for B2

Ki [1]: < 50 nM
Ki (mouse glucagon receptor [2]): < 50 nM
Ki (human glucagon receptor [3]): < 50 nM
Ki (rat glucagon receptor [4]): < 50 nM
B9: Antibody of example 1 (Ab1) (antibody, human IgG4 S228P, kappa, F234A L235A, V domains shown)
VH: B1 VH with H34W
VL: B1 VL with I32M, Y52N, Q89W
notes: as for B2

Ki [1]: < 50 nM
Ki (mouse glucagon receptor [2]): < 50 nM
Ki (human glucagon receptor [3]): < 50 nM
Ki (rat glucagon receptor [4]): < 50 nM
B10: Fab fragment of antibody example 5 (Fab, V domains shown)
VH: B1 VH with Y58Q
VL: B1 VL
notes: Expressed in E. coli; Fab = VL+CL and VH+CH1 (Fc absent); also called Fab of Ab5; not shown: His tag

Reference: patent US20090252727A1 (Eli Lilly, published 2009)
